Test: yeast display, Sf9 membrane polyspecificity reagent, FACS + sequencing; frameworks hold sequencing errors
Method in brief: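 A synthetic nanobody library was expressed on Saccharomyces cerevisiae BJ5465 by galactose induction for 36–48 hours. The library was stained for 1 hour at 4 °C with 10% biotinylated, detergent-solubilized Sf9 membrane reagent and enriched with streptavidin microbeads before FACS. Low and high (top ~1%) gates were set on anti-HA fluorescence for expression and streptavidin fluorescence for reagent binding, and each polyreactivity label reflects the gate of origin.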

Sequence: QVQLVESGGGLDQAGGSLRLSCAASGRIFLPNAMGWYRQAPGKEMEFVASISWSGGSTYYADSVKGRFTISRDYAKNTVYLQMNSLKPEDTAVYYCNARFGKRYYYWGQGTQVTVSS
- polyreactivity (PSR sort gate): low polyreactivity

Sequence: QVQLVESGGGLDQAGGSLRLSCAASGRIFVIIAMGWYRQAPGKERELVAAISWTGDTTYYADSVKGRFTISRDNAKNTVYLQMNSLKPEDTAVYYCAAEGYYIQSRTYSSDRYDYWGQGTQVTVSS
- polyreactivity (PSR sort gate): low polyreactivity

Sequence: QVQLVESGGGLDQAGGSLRLSCAASGRIFYPYTMGWYRQAPGKERELVAAISSTGRTNYADSVKGRFTISRDNAKNTVYLQMNSLKPEDTAVYYCAKRYRKYSLGPPGNDYWGQGTQVTVSS
- polyreactivity (PSR sort gate): high polyreactivity

Sequence: QVQLVESGGGLDQAGGSLRLSCAASGRIFYQNAMGLSRQAPGKERELVAAITSSGVSTYYADSVKGRFTISRDNAKNTVYLQMNSLKPEDTAVYYCAAYRVGYGGYSYYYWGQGTQVTVSS
- polyreactivity (PSR sort gate): high polyreactivity

Sequence: QVQLVESGGGLDQAGGSLRLSCAASGRIFYYYPMGWYRQAPGKERELVAGIDSGDSTNYADSVKGRFTITRDNAKNTVYLQINSLKPEDTAVYYCAALHYGGYFSYYPYYYWGQGTQATVSS
- polyreactivity (PSR sort gate): low polyreactivity

Sequence: QVQLVESGGGLDQAGGSLRLSCAASGRISGYYDMVWYRQAPGKERELVATITSDGGTNYADSVKGRFTISRDNAKNTVYLQMNSLKPEDTAVYDCAAYGWYTKWHFAYGYWGQGTQVTVSS
- polyreactivity (PSR sort gate): low polyreactivity

Sequence: QVQLVESGGGLDQAGGSLRLSCAASGRISIRNAMGWYRQAPGKETELVAAISRSGGSTYYADSLKGRFTISRDNAKNTVYLQMNSLKPEDTAVYYCAARGYSTYPMDYWGQGTQVTVSS
- polyreactivity (PSR sort gate): high polyreactivity

Sequence: QVQLVESGGGLDQAGGSLRLSCAASGRTFANAMGWYRQAPGKERELVAGITSGGGRTYYADSVKGRFTMSRDNAKNTVYLQMNSLKPEDTAVYYCNRATPPGRLKSDSWGQGTQVTVSS
- polyreactivity (PSR sort gate): high polyreactivity

Sequence: QVQLVESGGGLDQAGGSLRLSCAASGRTFAVYAMGWYIQAPGKERELVASIRLSGTRTYYADSVKGRFTISRDHAKNTVYFQMNSLKPEDTAVYYCAAKGTYSRGTFNGYRYDYWGQGTQVTVSS
- polyreactivity (PSR sort gate): high polyreactivity

Sequence: QVQLVESGGGLDQAGGSLRLSCAASGRTFGRYAMGWYRKAPGTERELVAAISWSGGSTYYADSVKGRFTISRDNAKNTVYLQMNSLKPEDTAVYYCAAYEHVYEYDYWGQGTQVTVSS
- polyreactivity (PSR sort gate): low polyreactivity

Sequence: QVQLVESGGGLDQAGGSLRLSCAASGRTFKYYAMGWYRQAPGKERELVAAITRSGSTYYADSVKGRFTISRDNAKNTVYLQMNSLKPEDTAVYYGAADVTLYYRGRRYYYWGQGTQVTVSS
- polyreactivity (PSR sort gate): high polyreactivity

Sequence: QVQLVESGGGLDQAGGSLRLSCAASGRTFLVYAMGWYRQAPGKERELVAAISRSGGSTYYADSVMRRFTISRDNAKNNVYLQMNSLIPEDTAVYYCAAKKTGRYYWGQGTEVTVSS
- polyreactivity (PSR sort gate): high polyreactivity

Sequence: QVQLVESGGGLDQAGGSLRLSCAASGRTFRYYAMGWDRQAPGKERELVAAITGSGGSTYYADSVKGRFTISRDIAKNTVYLQMNSLKPEDTAVYYCATRWALRWRGGYWGQGTQVTVSS
- polyreactivity (PSR sort gate): high polyreactivity

Sequence: QVQLVESGGGLDQAGGSLRLSCAASGRTLYRYAMGWYRQSPGKERELVAAIRSGGRTNYADSVKGRFTISRDNAKNTVYLQLNSLKPEDTAVYYCAARTLRYPSTYDYWGQGTQVTVSS
- polyreactivity (PSR sort gate): high polyreactivity

Sequence: QVQLVESGGGLDQAGGSLRLSCAASGSIFGRNAMRWYRQAPGKERELVAAITGYTYYADSVKGRFTISRDNAKNTVYLQMNSLKPEDTAVYYINADHDVGWTYDTEYNYWGQGTQVTVSS
- polyreactivity (PSR sort gate): low polyreactivity

Sequence: QVQLVESGGGLDQAGGSLRLSCAASGSIFGTNTMGWYRQSPGKERELVAAIRLSDSSTYYADSVKGRFTISRDNAKNTVYLQMNSLKPEDTAVYYCAVDYRAYHYYRYDYWGQGTQVTVSS
- polyreactivity (PSR sort gate): low polyreactivity

Sequence: QVQLVESGGGLDQAGGSLRLSCAASGSIFLDYAMGWYRQAPGKERELVAAISLSSSRTYYADSLKGRFTISRDNAKNTVYLQLNSLKPEDTAVYNCNKLSIWSYYFGPYGYDYWGQGTQVTVSS
- polyreactivity (PSR sort gate): low polyreactivity

Sequence: QVQLVESGGGLDQAGGSLRLSCAASGSIFRRYTMGWYRQAPGKERELVAAISRVGNTNYADSVKGRITISRDNAKNTVYFQMNSLKPEDTEVYYCAARAIGYRYTPGLNYWGQGTQVTVSS
- polyreactivity (PSR sort gate): high polyreactivity

Sequence: QVQLVESGGGLDQAGGSLRLSCAASGSIFSVYAMGWYRQARGKERELVAAITSGTSTYADSVKGRFTISRDNAKNSVYLQMNSLKPEDTAVYYCAAESGSPGYYYWGQGTQVTVSS
- polyreactivity (PSR sort gate): low polyreactivity

Sequence: QVQLVESGGGLDQAGGSLRLSCAASGSIFVGYAMGWYRQAPGKERELVASINYSGGTTDYADSVKGRFTISRDNAKNTVYLQMHSLKPEDTAVYYCAKTAVDCSFTKGVDYDYWGQGTQVTVSS
- polyreactivity (PSR sort gate): low polyreactivity

Sequence: QVQLVESGGGLDQAGGSLRLSCAASGSIFVPYAMGGYRQAPGKERELVAAITSGDSTYYADSVKGRFTISRDNAKNNVYLQMNSLKPEDTAVYYCAADIRPTLSLLSLFDYEYWGQGTQVTVSS
- polyreactivity (PSR sort gate): low polyreactivity

Sequence: QVQLVESGGGLDQAGGSLRLSCAASGSISGYNAMGWYRQAPGKERELVASIRYTGARSYYADSGKGRFTISRDNAKNTVYLQMNSLKPEDTAVYYCAADSAYDVTSYGYWGQGTQVTVSS
- polyreactivity (PSR sort gate): low polyreactivity

Sequence: QVQLVESGGGLDQAGGSLRLSCAASGSTFGVYAMGWYRQAPGKERELVAAISSSTGSTYYADSVKGRFTISRDNAKNTVYLQMNSLKPEDTAVYYCAAEYDGPYYSFYPEQRYYWGQGTQVTVSS
- polyreactivity (PSR sort gate): low polyreactivity

Sequence: QVQLVESGGGLDQAGGSLRLSCAASGSTFHYYAMGWYRQPHGKERELVAVISSGGSTYYADSVKGRFTISRDNAKNTVYLQMNSLKPEDTAVYYCAAEYFLLAGKGYNGGDYYVYDYWGQGTQVTVSS
- polyreactivity (PSR sort gate): low polyreactivity

Sequence: QVQLVESGGGLDQAGGSLRLSCAASGSTFLHYAMGWYRQAPRKERELVAAISFSGVRTYYADSVKGRFTISRDNAKNTVYLQMNSLKPEDTAVFYCAADGHHADYDYWGQGTQVTVSS
- polyreactivity (PSR sort gate): low polyreactivity

Sequence: QVQLVESGGGLDQAGGSLRLSCAASGSTFPSNAMGWYRQAPGNESEFVAAITFRGGRTYYADSVKGRFTISRDNAKNTVYLQMNSLKREDTAVYYCAAERWWYTVRGYGYWGQGTQVTVSS
- polyreactivity (PSR sort gate): high polyreactivity

Sequence: QVQLVESGGGLDQAGGSLRLSCAASGSTFRYYTMGWYRQAHGKERELVAAISSRGGSTYYADSVKGRFTISRDNAKKTVYLQMNSLKPEDSAVYYCCALYPSWAQRGRDYWGQGTQVSVSS
- polyreactivity (PSR sort gate): high polyreactivity

Sequence: QVQLVESGGGLDQAGGSLRLSCAASGSTFSQYVMGWYRQAPGKERELVAANSSGGSTYYADSVKGRFTISRDNAKNTVYLQMNSLKPEDTAVYYCAAKYDGSYVGLYWYSMNYWGQGTQVTVSS
- polyreactivity (PSR sort gate): low polyreactivity

Sequence: QVQLVESGGGLDQAGGSLRLSCAASGSTFTKNVMGWYRQAPGKERELVAAISSGGRTNYADSVKGRFTISRDNAKNTVYLQMNSLKPEDTAVYFCAADVGYFKSDYWGQGTQVTVSS
- polyreactivity (PSR sort gate): low polyreactivity

Sequence: QVQLVESGGGLDQAGGSLRLSCAASGSTFVWNAMGWYRHAPGKERELVAAISSSGGSTYYADSVKGRFTISRDNAKNTVYLQMNSLKPEDTAVYYCAKGYYVRMDWGQGTQVTVSS
- polyreactivity (PSR sort gate): high polyreactivity

Sequence: QVQLVESGGGLDQAGGSLRLSCAASGSTFVYNVMGWYRQAPGKERELVAAITSGVRTYYADSEKGRFTISRDNAKNTGYLQMNSLKPEDTAVYYCATGWRNAKYYYWGQGTQVNVSS
- polyreactivity (PSR sort gate): high polyreactivity

Sequence: QVQLVESGGGLDQAGGSLRLSCAASGTTFVPNDMGWYRQAPGKERELVAAITDSGGSTYYADSVWGRFTISRDNAKNTVYLQMNILKPEDTAVYYCADVQHYVTHMDYWGQGNQVTVSS
- polyreactivity (PSR sort gate): low polyreactivity

Sequence: QVQLVESGGGLDQAGGSLRLSCAASVLIFNIYARGWYRQAPGKERELVATIRYSGGSTNYADSVKGRFTISRDNAKNTVYLQMNSLKPEDTAVYYCNAGYYPSGYDYWGQGTQVTVSS
- polyreactivity (PSR sort gate): low polyreactivity

Sequence: QVQLVESGGGLDQAGGSLRLSCAAYGITFGYYAMGWYRQAPGKERELVASITTRGGSTSYADSVKGRFTISRDNAKNTVYLQMNSLKPEDTAVYYCAARWRQRKSVRYGQQGYDYWGQGTQVTVSS
- polyreactivity (PSR sort gate): high polyreactivity

Sequence: QVQLVESGGGLDQAGGSLRLSCADSGSIFESYAMGWYRQAPGKERELVAAITKRGGSTYYADSVKGRFTISRDNAKNTVYLQMNSLKPEDTAVYYCNARWPGIGPIYDYWGQGTQVTVSS
- polyreactivity (PSR sort gate): low polyreactivity

Sequence: QVQLVESGGGLDQAGGSLRLSCDASGRIFGYYAMGWYRQAPGKERELVAAITWTGGGTYYADSVKGRFTISRDNAKNTVYIQMNSLKPEDTAVYYCAADPDSGQFPFDYWGQGTQVTVSS
- polyreactivity (PSR sort gate): low polyreactivity

Sequence: QVQLVESGGGLDQAGGSLRLSCPASGSTFLNNAMGRYRQAPGKERELVATITSGGITNYADSVKGRFTISRDNAKNCVYLQMNSLKPEDTAVYYCNADTWGFTYYYWGQGTQVTVSS
- polyreactivity (PSR sort gate): low polyreactivity

Sequence: QVQLVESGGGLDQAGGSLRLSCVASGFTFRVYAMGWYRQAPGKERELVAAISRVGSTNYADSVKGRFTISRDNAKNTVYLQMNSLKPEDTAVYYCNAVLRHTWVSRGYGSWGQGTQVTVSS
- polyreactivity (PSR sort gate): high polyreactivity

Sequence: QVQLVESGGGLDQAGGSLRLSSAASGFTFERYPMGWDRQAPGKEREMVAAIDWRGVNTYYADSVKGRFTISRHTAKTTVYLQMNSLKPEDTAVYYCNARAYGRYYWGQGTQVTVSS
- polyreactivity (PSR sort gate): high polyreactivity

Sequence: QVQLVESGGGLDQAGGSLRLSSAASGSIFRGNAMGWYRQAPGKERELVAGINRAGSTKYADSVKGRFTISRDNAKNTVYLQMNSLIPEDTAVYYCAAVRYERGLWSDYWGQGTQVTVSS
- polyreactivity (PSR sort gate): high polyreactivity

Sequence: QVQLVESGGGLDQAGGSLRLTCAASGSIFAKYAMGWYRQAPGKERELVAAITSSGDSTNYADSVKGRFTISRDNAKNTVYVQMNSLKPEDTAVYYCAADHHYGYVYYAFWGYDYWGQGTQVTVSS
- polyreactivity (PSR sort gate): low polyreactivity

Sequence: QVQLVESGGGLDQAGGSLRLTCAASGSTFEVYAMGWYRQAPGKERELVAVNNVSDGSTYYADSVKGRFTISRDNAKNTVYLQMNSLKPEDTAVYYCAAYLYNRPYQLTGYYDGYGYWGQGTQVTVSS
- polyreactivity (PSR sort gate): low polyreactivity

Sequence: QVQLVESGGGLDQAGGSLSLICAASASIFSYYAMGWYRQAAGKERELVATISSGGSTNYADSVKGRFTISRDNAKNTVYLQMNSLKPEDTAVYYCAATIGHNGFDYWGQGTQVTVSS
- polyreactivity (PSR sort gate): low polyreactivity
